According to US20200129582A1, “NOVEL PEPTIDES AND PEPTIDOMIMETICS” (UNIVERSITY OF AUCKLAND, priority 2016, published 2020):
Residues, ends and D or L forms follow the SMILES beside them.

Assays:
Solubility in miliQ H2O = assay type: physicochemical
Experimental: For cell scrape load—dye coupling assays of gap junctions, induced protein distribution changes and ATP release studies of hemichannel block, Connexin43 mimetic peptide (Peptide5, sequence VDCFLSRPTEKT (SEQ ID NO: 45)) (Auspep, Australia) was synthesized at purity >95% and dissolved in miliQ H2O at a stock concentration of 10 mM. For competition assays extracellular loop matching peptides were custom synthesised and dissolved in miliQ H2O at a stock concentration of 1 mM according to purity supplied by the manufacturer (Auspep, Australia). For Peptide5 sequence substitution studies, peptides were generated in the School of Chemical Sciences, University of Auckland. The peptides were prepared using Fmoc solid phase synthesis. Fmoc-Thr(tBu)-OH or Fmoc-Ala-OH pre-loaded to the HMPP linker and attached to in-house prepared aminomethyl PS resin 2.1 (using DIC in DMF). This was followed by alternating de-protection and coupling reactions using 5% piperazine containing 0.1 M 6-Cl-HOBt and HBTU and NMM respectively via automated Tribute Fmoc-SPPS. Resin cleavage using TFA afforded crude products, which underwent purification via semi-preparative RP-HPLC. Peptides were obtained in high purity (>95%) and with good yields (17%-46%). All alanine substituted analogues were miliQ H2O soluble (Table 5).
Peptide5 interacting site on the Connexin43 protein was determined using a competition assay. […]

[1] = target: T1, Connexin43 plaques in ARPE-19 cells (Homo sapiens, UniProt P17302); experiment: Immunocytochemistry and quantification of Cx43 plaques; assay type: cell-based; conditions: 2- or 6-hour treatment, Peptide5 50-500 μM, LaCl3 and CBX 500 μM
T1 construct: a cell line with high endogenous expression of connexin43; endogenous in cells; host or cells: ARPE-19
Experimental: (§1) ARPE-19 cells were grown until confluent in 8-well glass chamber-slides (BD Falcon). Confluent monolayers of ARPE-19 cells were incubated at a final concentration of 50 to 500 μM Peptide5, 500 μM LaCl3 and 500 μM CBX in culture medium for 2 or 6 hours. Cells were fixed in 4% PFA (ProSciTech) at pH 7.4 for 10 min at room temperature, permeabilized with 0.05% Triton-X100 in PBS, and incubated in 10% normal goat serum to block non-specific labelling. Cells were rinsed three times with PBS containing 0.1 mM CaCl2 between each fixation, permeabilization, and blocking steps. Connexin43 polyclonal rabbit antibody (C6219, Sigma, 1:2000) was applied overnight, followed by a goat anti-rabbit Alexa Fluor® 568 secondary antibody (Invitrogen, 1:200) for 45 minutes. Nuclei were counterstained with DAPI (Invitrogen) at 10,000-fold dilution for 5 mins, and mounted with Citifluor™ mounting medium. Images were visualised and captured using an oil immersion lens (60× magnification, 1.35 numerical aperture) on an Olympus FV1000 upright confocal laser scanning microscope and Olympus FV10-ASW 4.0 software. The Transfluor feature in MetaXpress® Image acquisition and analysis software (Version 5.3.0.1, Molecular Devices) was used to quantify the total area of Connexin43 plaques per image.
as §1

[2] = target: T2, hemichannel-mediated ATP release from hCMVEC cells (Homo sapiens, UniProt P17302); experiment: In vitro ischemia injury ATP release assay (single alanine substituted and truncated peptides); assay type: cell-based
T2 construct: endogenous in cells; host or cells: hCMVEC (human cerebral microvascular endothelial cells)
Experimental: The human cerebral endothelial cells (hCMVEC) were plated at a density of 0.025×10^6 cells per well in a collagen-coated 12-well plate (1 μg/cm^2) a day prior to the experiment. Cells were incubated in culture medium overnight. Hypoxic, acidic, ion-shifted Ringer injury solution that mimics ionic concentrations and acid-base shifts of the interstitial space in hypoxic-ischemic brains (Bondarenko and Chesler, 2001, […]) was used to trigger hemichannel opening. The injury solution contained (in mM): 38 NaCl, 13 NaHCO3, 3 Na-gluconate, 65 K-gluconate, 38 NMDG-Cl, 1 NaH2PO4, and 1.5 MgCl2. The injury solution was bubbled in 95% N2, 5% CO2 gas (20 L/min) for 5 minutes and pH adjusted to 6.6 before use. The standard ringer solution contained (in mM): 124 NaCl, 3 KCl, 26 NaHCO3, 26 NaHCO3, 1 NaH2PO4, 1.3 CaCl2, 1.5 MgCl2, and 10 Glucose, and pH adjusted to 7.4 before use (Bondarenko and Chesler, 2001). In the ischemia injury model, hCMVEC cells were incubated for 2 hours in 500 μL injury solution+/−Peptide5 (100 μM) (O'Carroll et al., 2008, Cell communication & adhesion 15:27-42; Danesh-Meyer et al., 2012, Brain: a journal of neurology 135:506-520; Davidson et al., 2012, Annals of neurology 71:121-132; Davidson et al., 2013, Experimental neurology 248:301-308; Davidson et al., 2014, PloS one 9:e96558; Davidson et al., 2015, J Cereb Blood Flow Metab), or +/−extracellular loop sequences (Table 5), or modified peptides (Table 2, 3) dissolved in injury solution (500 μL) with a final concentration of 100 μM. For negative control, hCMVEC cells were incubated only in 500 μL standard ringer solution for 2 hours. For positive control, hCMVEC cells were incubated only in 500 μL […] for 2 hours. All incubations were conducted at 37° C. in 95% O2 and 5% CO2. At the end of each experiment, samples were removed and immediately placed on ice. The concentration of ATP in the samples was determined using a Luciferin/luciferase bioluminescence reaction (ATP Determination Kit, Molecular Probes) and detected using a luminescence plate reader (VICTOR X, Perkin Elmer #2030-0010). Standard curves were generated in each experiment from an ATP standard (0 to 500 nM) to convert bioluminescence units to ATP concentration. […] The data is presented as mean±standard error relative to the injury or injury-reperfusion positive control. Statistically significant differences between samples were tested using one-way analysis of variance and Tukey's multiple comparisons test.
Peptides listed in table 5 and 2 were assessed using the ischemia injury model in hCMVEC cells as described above, and the medium was collected for ATP release measurement.
The human cerebral endothelial cells (hCMVEC) were plated at a density of 0.025×10^6 cells per well in a collagen-coated 12-well plate (1 μg/cm^2) a day prior to the experiment. Cells were incubated in culture medium overnight. Hypoxic, acidic, ion-shifted Ringer injury solution that mimics ionic concentrations and acid-base shifts of the interstitial space in hypoxic-ischemic brains (Bondarenko and Chesler, 2001) was used to trigger hemichannel opening. The injury solution contained (in mM): 38 NaCl, 13 NaHCO3, 3 Na-gluconate, 65 K-gluconate, 38 NMDG-Cl, 1 NaH2PO4, and 1.5 MgCl2. The injury solution was bubbled in 95% N2, 5% CO2 gas (20 L/min) for 5 minutes and pH adjusted to 6.6 before use. The standard ringer solution contained (in mM): 124 NaCl, 3 KCl, 26 NaHCO3, 26 NaHCO3, 1 NaH2PO4, 1.3 CaCl2, 1.5 MgCl2, and 10 Glucose, and pH adjusted to 7.4 before use (Bondarenko and Chesler, 2001).

[3] = target: T3, coupled gap junction channels in hCMVEC cells (Homo sapiens, UniProt P17302); assay type: cell-based; conditions: hCMVEC, 100 μM, FIG. 5
T3 construct: A confluent monolayer of hCMVECs was pre-incubated in Peptide5; endogenous in cells; host or cells: hCMVEC
Experimental: (§2) The hCMVEC cells were plated in 1 μg/cm^2 collagen I (Gibco) 12-well plate at a density of 0.4×10^6 cells per well, and cultured overnight. A confluent monolayer of hCMVECs was pre-incubated in Peptide5 (5-100 μM) dissolved in culture medium for 2 hours or 24 hours. CBX at a concentration of 100 μM was used as a positive control. Cells were washed three times with phosphate buffered saline (PBS) without Ca^2+ or Mg^2+. The cells were then incubated in 0.05% Lucifer Yellow (LY) (Sigma), a fluorescent dye that is transferred through coupled gap junction channels (el-Fouly et al., 1987, Experimental cell research 168:422-430), +/−Peptide5 dissolved in PBS, and scrape-wounded with a size 10 carbon steel surgical blade (Swann-Morton, England). Following 5-minute incubation at 37° C. in 95% O2 and 5% CO2 without light, the 0.05% LY solution was removed. Cells were rinsed four times with PBS with Ca^2+ or Mg^2+, and then fixed in 4% paraformaldehyde (PFA) in PBS at pH 7.4 for 10 minutes at room temperature. Cells were then washed 3 times in PBS to remove PFA before fluorescent imaging. Fluorescent images were visualised using a Nikon TE2000E inverted fluorescent microscope (10× magnification, 0.3 numerical aperture), and captured using a Digital Sight CCD camera and Eclipse Net software (Nikon). Three images within each well from three independent experiments were taken for analysis and the total number of cells showing dye uptake from those that had been loaded were counted manually by masked observers.
as §2, with “1987),” for “1987, Experimental cell research 168:422-430),”

T2 sequence (P17302 2-382 limits assumed): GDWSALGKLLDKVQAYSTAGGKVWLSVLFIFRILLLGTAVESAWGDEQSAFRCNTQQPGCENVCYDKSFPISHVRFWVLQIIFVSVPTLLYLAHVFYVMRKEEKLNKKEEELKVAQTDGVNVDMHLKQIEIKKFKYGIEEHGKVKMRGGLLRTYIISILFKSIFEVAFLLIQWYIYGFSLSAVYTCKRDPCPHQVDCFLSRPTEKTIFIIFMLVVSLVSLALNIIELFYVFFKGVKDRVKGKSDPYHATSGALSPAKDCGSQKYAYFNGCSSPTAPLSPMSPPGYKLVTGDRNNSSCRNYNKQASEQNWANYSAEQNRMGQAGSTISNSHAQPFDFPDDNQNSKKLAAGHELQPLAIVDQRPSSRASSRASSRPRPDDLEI
T1 sequence (P17302 2-382 limits assumed): as above

CC[C@H](C)[C@H](NC(=O)[C@H](Cc1ccc(O)cc1)NC(=O)[C@H](Cc1c[nH]c2ccccc12)NC(=O)[C@H](CCC(N)=O)NC(=O)[C@@H](NC(=O)[C@H](CC(C)C)NC(=O)[C@H](CC(C)C)NC(=O)[C@@H](N)Cc1ccccc1)[C@@H](C)CC)C(=O)N[C@@H](Cc1ccc(O)cc1)C(=O)NCC(=O)N[C@@H](Cc1ccccc1)C(=O)N[C@@H](CO)C(=O)N[C@@H](CC(C)C)C(=O)N[C@@H](CO)C(=O)N[C@@H](C)C(=O)N[C@H](C(=O)N[C@@H](Cc1ccc(O)cc1)C(=O)N[C@H](C(=O)N[C@@H](CS)C(=O)O)[C@@H](C)O)C(C)C [EL2a, FLLIQ WYIYG FSLSA VYTC] (H-FLLIQWYIYGFSLSAVYTC-OH; N-terminus and C-terminus assumed)
solubility in miliQ H2O (Solubility in miliQ H2O): soluble in miliQ H2O except for the EL2a sequence

[Cl][La]([Cl])[Cl] [LaCl3, Lanthanum chloride, reference compound]
Connexin43 labelling per cell compared to untreated control (in words) [1]: not significantly different to the control
ATP release, % of the injury control [2]: 47.8±13.6%
ATP release compared to injury control (in words) ([2]; hCMVEC, 100 μM, FIG. 3): significantly reduced ATP release

RFKPSLCTTDEV [scrambled peptide]
LY dye transfer, comparison in words [3]: no significant difference

SRPTEKT [mod-3]
LY dye transfer, % of the untreated control ([3]; 2-hour exposure, untreated control 100±4.5%): 77.6±4.8%
LY dye transfer, comparison in words [3]: comparable to the native Peptide5
ATP release compared to injury control (in words) ([2]; hCMVEC, 100 μM, FIG. 4): not significantly different to the injury control
ATP release compared to native Peptide5 (in words) ([2]; hCMVEC, 100 μM, FIG. 4): significantly greater ATP release
